# Assay results from article PMC2730992 (Molecular and biochemical parasitology, 2009).
# Columns and labels:
# [1] = biological target: T1, TcAdoMetDC (T. cruzi AdoMetDC homodimer) (Trypanosoma cruzi, UniProt O76240); assay: activation of AdoMet decarboxylation, […]CO2 trapping; assay type: biochemical; conditions: 5 mM putrescine; allosteric activator; pH 8.0, 37 °C
# T1 sequence (O76240 1-85): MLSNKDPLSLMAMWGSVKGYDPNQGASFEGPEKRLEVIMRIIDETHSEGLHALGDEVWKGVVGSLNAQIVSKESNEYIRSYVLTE
# T1 sequence (O76240 86-370): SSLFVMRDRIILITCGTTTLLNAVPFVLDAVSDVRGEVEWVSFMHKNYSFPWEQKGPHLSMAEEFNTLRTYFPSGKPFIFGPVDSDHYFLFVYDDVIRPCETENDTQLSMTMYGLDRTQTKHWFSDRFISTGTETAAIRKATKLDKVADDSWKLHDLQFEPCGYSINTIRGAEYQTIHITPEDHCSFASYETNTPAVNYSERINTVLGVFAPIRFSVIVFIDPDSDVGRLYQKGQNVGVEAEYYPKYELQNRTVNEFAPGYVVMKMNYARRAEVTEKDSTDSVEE
# [2] = biological target: T. cruzi S-adenosylmethionine decarboxylase (AdoMetDC), His6-tagged (Trypanosoma cruzi)
# [3] = biological target: T. brucei S-adenosylmethionine decarboxylase (AdoMetDC), His6-tagged (Trypanosoma brucei)
# [4] = biological target: T. cruzi S-adenosylmethionine decarboxylase (AdoMetDC), His6-tagged (Trypanosoma cruzi); remark: listed apart in the source
compound,measurement,setting,value
NCCCCN [putrescine],"activation of AdoMet decarboxylation, 14CO2 trapping",[1],the T. cruzi AdoMetDC enzyme was stimulated by putrescine
"T. brucei prozyme, His6-tagged (natural protein)","increase of T. cruzi AdoMetDC activity by T. brucei prozyme, no putrescine",[2],70 fold
"T. cruzi prozyme, His6-tagged (natural protein)","stimulation of T. brucei AdoMetDC activity by T. cruzi prozyme, no putrescine",[3],60 fold
"T. cruzi prozyme, untagged (natural protein)","kcat/Km of AdoMet decarboxylation, co-purified heterodimer, 5 mM putrescine",[4],5100 M⁻¹ s⁻¹
same,"kcat/Km of AdoMet decarboxylation, co-purified heterodimer, no putrescine",[4],1030 M⁻¹ s⁻¹
